Test results: patent US20230220042A1 (SHANGHAI JIAO TONG UNIVERSITY SCHOOL OF MEDICINE, published 2023)

Key:
[1] = molecular target: Biotin-FcγRIIB (human FcγRIIB, Sino Biological) (human) (UniProt P31994); experiment: flow cytometry, 3T3 cells displaying the antibody, biotin-FcγRIIB
[2] = molecular target: Biotin-FcγRIIB (human FcγRIIB, Sino Biological) (human) (UniProt P31994); experiment: NGS after FACS sort of 3T3-displayed Library2 for biotin-FcγRIIB binding
[3] = molecular target: Biotin-FcγRIIB (human FcγRIIB, Sino Biological) (human) (UniProt P31994); experiment: NGS after FACS sort of 3T3-displayed Library4 for biotin-FcγRIIB binding
[4] = molecular target: Biotin-FcγRIIB (human FcγRIIB, Sino Biological) (human) (UniProt P31994); experiment: NGS after FACS sort of 3T3-displayed LibraryMix for biotin-FcγRIIB binding
[5] = molecular target: Biotin-FcγRIIB (human FcγRIIB, Sino Biological) (human) (UniProt P31994); experiment: flow cytometry, 3T3 cells displaying the antibody, biotin-FcγRIIB + Streptavidin-APC

Chain of Biotin-FcγRIIB (human FcγRIIB, Sino Biological) (human) (P31994 43-217 limits assumed): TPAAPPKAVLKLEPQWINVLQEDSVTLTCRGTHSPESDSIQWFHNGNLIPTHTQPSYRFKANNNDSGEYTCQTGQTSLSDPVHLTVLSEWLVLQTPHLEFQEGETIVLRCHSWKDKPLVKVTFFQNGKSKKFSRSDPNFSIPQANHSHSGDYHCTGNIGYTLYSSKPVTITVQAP

proportion of the cells capable of binding to FcγRIIB [1]: 0.23%
Enrichment factor (percentage after sorting/percentage before sorting) [2]: 0.57
Enrichment factor (percentage after sorting/percentage before sorting) [3]: 1.49
Enrichment factor (percentage after sorting/percentage before sorting) [4]: 0.75
proportion of the cells binding to FcγRIIB [5]: 0.34%
Substance: human IgG2 anti-mouse CD40 surface displayed antibody (wild-type Fc)
